Results as given in US20120308574A1 (HANWHA CHEMICAL, published 2012).

How the values were obtained:
[1] = biological target: T1, recombinant human VCAM-1 (Cat. No. 809-VR-200, R&D systems) (human, UniProt P19320 25-698, limits assumed); assay: cell-based or functional assay
T1 sequence (looked up): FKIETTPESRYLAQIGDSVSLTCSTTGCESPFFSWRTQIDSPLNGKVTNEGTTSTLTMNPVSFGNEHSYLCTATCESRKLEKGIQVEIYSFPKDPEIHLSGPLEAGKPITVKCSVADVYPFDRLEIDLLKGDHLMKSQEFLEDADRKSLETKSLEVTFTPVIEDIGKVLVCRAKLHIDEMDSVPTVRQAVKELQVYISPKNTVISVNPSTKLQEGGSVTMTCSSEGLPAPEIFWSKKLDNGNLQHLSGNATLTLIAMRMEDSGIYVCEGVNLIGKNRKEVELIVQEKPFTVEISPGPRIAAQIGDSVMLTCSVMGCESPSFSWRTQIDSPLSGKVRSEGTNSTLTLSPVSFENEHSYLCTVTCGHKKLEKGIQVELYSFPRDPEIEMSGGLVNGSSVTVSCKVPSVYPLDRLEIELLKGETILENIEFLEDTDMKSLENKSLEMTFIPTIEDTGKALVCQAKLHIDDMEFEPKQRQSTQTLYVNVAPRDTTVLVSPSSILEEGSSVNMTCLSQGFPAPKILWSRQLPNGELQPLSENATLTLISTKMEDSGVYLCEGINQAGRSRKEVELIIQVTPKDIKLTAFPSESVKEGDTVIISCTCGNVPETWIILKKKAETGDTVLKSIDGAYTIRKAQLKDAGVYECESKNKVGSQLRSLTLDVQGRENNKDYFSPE

[2] = biological target: T2, mVCAM-1-Fc chimera (R&D systems, Cat# 643-VM) (mouse, UniProt P29533 25-698); assay: SPR (BIACORE), VCAM-1/Fc immobilised on CM5 chip, antibody as analyte, 1:1 binding model
T2 construct: Bought product; also called Mouse VCAM-1 antigen; mouse antigen; Fc part of the bought chimera not given
T2 sequence (looked up): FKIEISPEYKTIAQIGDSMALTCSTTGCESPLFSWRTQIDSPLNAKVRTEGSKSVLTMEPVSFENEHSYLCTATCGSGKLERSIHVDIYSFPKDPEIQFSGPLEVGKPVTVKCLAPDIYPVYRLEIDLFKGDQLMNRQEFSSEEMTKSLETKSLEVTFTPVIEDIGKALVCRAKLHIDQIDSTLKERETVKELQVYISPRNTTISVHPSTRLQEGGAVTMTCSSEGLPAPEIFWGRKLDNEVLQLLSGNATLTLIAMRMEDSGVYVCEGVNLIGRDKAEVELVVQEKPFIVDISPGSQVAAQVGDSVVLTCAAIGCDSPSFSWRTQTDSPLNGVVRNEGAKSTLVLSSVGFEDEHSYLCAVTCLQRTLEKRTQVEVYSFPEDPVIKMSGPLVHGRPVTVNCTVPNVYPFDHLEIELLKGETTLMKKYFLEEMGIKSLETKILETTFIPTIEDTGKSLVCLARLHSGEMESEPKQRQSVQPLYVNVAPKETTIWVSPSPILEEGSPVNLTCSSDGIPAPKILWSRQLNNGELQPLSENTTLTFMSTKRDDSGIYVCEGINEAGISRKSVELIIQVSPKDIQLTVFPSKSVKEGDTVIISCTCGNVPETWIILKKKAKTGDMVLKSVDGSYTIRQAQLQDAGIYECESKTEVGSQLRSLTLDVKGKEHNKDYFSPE
Procedure: (§1) 1 mg/Ml of ligand to be immobilized was diluted in 97 μl of each sodium acetate solution (varying within the pH range from 4.0 to 5.5) at a dilution ratio of 3/100, and then applied at a flow rate of 10 μl/min for about 3 min (as a negative control, the ligand was diluted using a running buffer, HBS-EP buffer (BIACORE AB, Sweden) in the same manner). In order to immobilize the ligand at a predetermined value target RU (resonance unit), serial injection was carried out automatically, until reaching target RU. The ligand-immobilized chip was inactivated by injection of 1M ethanolamine (Amine Coupling Kit, BR-1000-50) at a flow rate of 10 μl/min for about 3 min. The final RU was determined by an immobilization report which provides a difference in RU values before and after injection of ethanolamine.
(§2) A flow cell2-flow cell mode provided by BIACORE instrument was employed in this experiment in order to remove non-specific binding. At this time, a recombinant VCAM1/Fc antigen was immobilized as a ligand to the flow cell2, and BSA (Bovine Serum Albumin) was immobilized to the flow cell. Then, each of the anti VCAM-1 antibodies 4B, 7C and 7H as the analyte were applied to flow cell 1 and 2, simultaneously. The sensogram RU of flow cell was automatically subtracted from the sensogram RU of flow cell2. Subsequently, the analytes were applied at a flow rate of 30 μl/min for about 3 min, and then dissociation was induced for 120 sec. Through this procedure, an association/dissociation curve of the corresponding antigen and antibody was obtained, and an association/dissociation constant KD was calculated by BIAevaluation program (BIACORE AB, Sweden), as shown in the following Table 2.
(§3) The above Table 2 represents the binding capacity or affinity of human and mouse VCAM-1 antigen-specific anti VCAM-1 human monoclonal antibodies to antigen, and a protein affinity analyzer, BIACORE (BIACORE AB, Sweden) was used to analyze a species specific antigen-antibody affinity to the biologically different species, human and mouse antigens. The affinity constant KD value of corresponding antigen-antibody was calculated in a 1:1 binding mode.

[3] = biological target: T3, recombinant human VCAM-1 domain 1~7/Fc chimera (R&D, 862-VC) (human, UniProt P19320 25-698); assay: as above
T3 construct: domain: domain 1~7; Bought product; also called VD7; hVCAM-Fc-chimera; Fc part of the bought chimera not given
T3 sequence (looked up): T1 sequence (looked up)
Procedure: as §1, §2, §3

[4] = biological target: T2, mVCAM-1-Fc chimera (R&D systems, Cat# …); assay: SPR (BIACORE), VCAM-1/Fc immobilised on CM5 chip, antibody as analyte
Procedure: as §1, with “For ligand immobilization to the sensor chip CM5, the chip should be first activated with a mixture of N-hydroxysuccinimide (NHS) and […] (EDC) (Amine Coupling Kit, BR-1000-50) to prepare a NHS-ester-activated chip surface being highly reactive to an amino group. 1 mg/Ml” for “1 mg/Ml”, “target RU. […] The final” for “target RU. The ligand-immobilized chip was inactivated by injection of 1M ethanolamine (Amine Coupling Kit, BR-1000-50) at a flow rate of 10 μl/min for about 3 min. The final”
(§4) A flow cell2-flow cell mode provided by BIACORE instrument was employed in this experiment in order to remove non-specific binding. […] Through this procedure, an association/dissociation curve of the corresponding antigen and antibody was obtained, and an association/dissociation constant KD was calculated by BIAevaluation program (BIACORE AB, Sweden), as shown in the following Table 2.

[5] = biological target: T3, recombinant human VCAM-1 domain 1~7/Fc …; assay: SPR (BIACORE), VCAM-1/Fc immobilised, antibody as analyte
Procedure: as §1, with “For ligand immobilization to the sensor chip CM5, the chip should be first activated with a mixture of N-hydroxysuccinimide (NHS) and […] (EDC) (Amine Coupling Kit, BR-1000-50) to prepare a NHS-ester-activated chip surface being highly reactive to an amino group. 1 mg/Ml” for “1 mg/Ml”, “target RU. […] The final” for “target RU. The ligand-immobilized chip was inactivated by injection of 1M ethanolamine (Amine Coupling Kit, BR-1000-50) at a flow rate of 10 μl/min for about 3 min. The final”
as §4

B1: anti VCAM-1 human monoclonal antibody 7H (antibody, V domains shown)
VH: QMQLVQSGGDLVKPGESLRLSCAASGFTFNDAWMTWVRQPPGKGLEWVGRIKSTTDGGTTNYAAPVEGRFTISRDDSKNTLYLEMNSLRAEDTAVYYCARIPLFNHDSGGYHGAFDIWGQGTMVTVSS
VL: DIQMTQSPSSLAVSLGERATINCKSSQSVLYSSNNKNYLAWYQQKPGQPPKLLIYWASTRESGVPDRFSGSGSGTDFTLTISSLQPEDFASYYCQESYSAPYTFGQGTKVEIKR
Q: With B1 as the binder, how does the “inhibition of adhesion of fluorescence-labelled U937 leukocytes to coated human VCAM-1 (reduction in fluorescence intensity)” value [1] read?
A: Its value is 90%.

Q: And the Kd [2]?
A: The Kd was 10.7 nM.

Q: What about the Kd [3] of the same binder?
A: Its Kd is 5.44 nM.

B2: anti VCAM-1 human monoclonal antibody 7C (antibody, V domains shown)
VH: QVQLVESGGGVVQPGGSLRLSCAASGFTFDDYAMHWVRQAPGKGLEWVSLISGDGTDTYYADSVKGRFTISRDNSKNSLYLQMNSLRAEDTAVYYCAKRGYSYLGALDGWGQGTKITVSS
VL: QLVLTQSPSVSVAPGQTARITCGGDNIGRESVHWYQQKAGQAPVLVIYYDSDRPSGIPERFSGSNSGNTATLTISWVDAGDEADYYCQVWDSSSDHVVFGGGTKLTVL
Q: Which “inhibition of adhesion of fluorescence-labelled U937 leukocytes to coated human VCAM-1 (reduction in fluorescence intensity)” value [1] does the source give for B2 here?
A: The value was 90%.

Q: What about the Kd [2] of the same binder?
A: The Kd was 36.9 nM.

Q: And the Kd [3]?
A: Its Kd is 38.8 nM.

B3: anti VCAM-1 human monoclonal antibody 4B (antibody, V domains shown)
VH: QMQLVESGGGLVQPGGSLRLSCAASGFTFSSYGVSWVRQAPGKGLEWVSRISGSGGSTYYADSVKGRFTISRDNSKSTLYLQMNSLRAEDTAVYYCARPIFYGGNSAFDSWGQGTLVTVSS
VL: QLVLTQPPSVSAAPGQKVTISCSGSSSNIGNNFVSWYQHLPGTAPKLLIYDNNKRPSGIPDRFSGSKSGTSATLGIAGLQTGDDADYYCGTWDSSLSAYVFGTGAKVTVL
notes: Tested as full IgG converted from an scFv phage clone and expressed in CHO-S (about 55 kDa heavy chain, about 25 kDa light chain)
Q: What does the source list for B3?
A: inhibition of adhesion of fluorescence-labelled U937 leukocytes to coated human VCAM-1 (reduction in fluorescence intensity) [1]: 80%; binding result [4]: no binding; Kd [5]: ~1 nM; Kd [3]: 0.5 nM
